From US20130266576A1 (Novo Nordisk, published 2013)
Numbering of substitutions follows the chain as printed.

T1: B-domain deleted factor VIII (FVIII) (human, UniProt P00451 20-759; P00451 1668-2351)
T1 sequence 1: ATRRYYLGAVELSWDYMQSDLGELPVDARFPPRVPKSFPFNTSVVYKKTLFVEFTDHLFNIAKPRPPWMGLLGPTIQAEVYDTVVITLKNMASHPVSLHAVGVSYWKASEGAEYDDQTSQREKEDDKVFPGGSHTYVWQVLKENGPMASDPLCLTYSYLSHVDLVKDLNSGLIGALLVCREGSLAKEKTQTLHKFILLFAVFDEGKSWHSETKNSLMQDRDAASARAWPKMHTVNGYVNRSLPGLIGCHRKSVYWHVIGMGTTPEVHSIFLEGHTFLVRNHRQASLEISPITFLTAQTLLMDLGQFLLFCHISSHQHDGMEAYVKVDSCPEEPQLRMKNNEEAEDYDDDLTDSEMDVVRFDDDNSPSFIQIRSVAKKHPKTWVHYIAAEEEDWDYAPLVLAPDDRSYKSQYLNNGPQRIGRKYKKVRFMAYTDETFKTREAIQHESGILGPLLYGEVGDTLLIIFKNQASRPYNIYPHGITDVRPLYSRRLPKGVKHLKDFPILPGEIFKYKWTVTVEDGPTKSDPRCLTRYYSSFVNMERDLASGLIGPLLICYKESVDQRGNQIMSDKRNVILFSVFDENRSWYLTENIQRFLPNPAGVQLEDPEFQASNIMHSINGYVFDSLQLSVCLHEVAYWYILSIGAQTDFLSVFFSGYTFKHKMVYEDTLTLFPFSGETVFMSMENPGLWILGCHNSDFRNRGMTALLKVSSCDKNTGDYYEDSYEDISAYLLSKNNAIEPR
T1 sequence 2: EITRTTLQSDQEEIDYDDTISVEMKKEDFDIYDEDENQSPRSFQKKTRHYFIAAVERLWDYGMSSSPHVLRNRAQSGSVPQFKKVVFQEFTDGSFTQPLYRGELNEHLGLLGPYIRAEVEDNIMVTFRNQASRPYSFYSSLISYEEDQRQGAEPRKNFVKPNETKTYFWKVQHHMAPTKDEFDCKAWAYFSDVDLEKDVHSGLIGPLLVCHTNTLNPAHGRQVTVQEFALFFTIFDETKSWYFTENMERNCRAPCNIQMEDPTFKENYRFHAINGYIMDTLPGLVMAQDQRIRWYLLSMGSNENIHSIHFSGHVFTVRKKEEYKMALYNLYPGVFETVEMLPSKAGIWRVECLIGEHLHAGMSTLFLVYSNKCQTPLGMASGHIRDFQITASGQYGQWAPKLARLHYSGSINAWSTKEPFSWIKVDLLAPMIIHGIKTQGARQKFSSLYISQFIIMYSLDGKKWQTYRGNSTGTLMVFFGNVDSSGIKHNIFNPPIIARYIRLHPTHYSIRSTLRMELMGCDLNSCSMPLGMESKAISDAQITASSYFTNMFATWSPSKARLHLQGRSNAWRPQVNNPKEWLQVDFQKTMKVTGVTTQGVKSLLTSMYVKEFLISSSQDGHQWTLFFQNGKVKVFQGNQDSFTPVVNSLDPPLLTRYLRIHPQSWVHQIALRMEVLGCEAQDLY

B1: anti-FVIII 4F143 (antibody, mouse IgG1, V domains shown)
VH: QIQFVQSGPELKKPGETVKISCKASGYTFTNYGMNWVKQAPGKGLKWMGWINSYTGEPTYADDFKGRFAFSLETSASTAYLQINNLKNEDTATYFCARGASYAMDYWGQGTSVTVSS
VL: DVQITQSPSYLAASPGETITINCRASKSISKYLAWYQEKPVKTNKLLIYSGSTLQSGIPSRFSGSGSGTDFTLTISSLEPEDFAMYYCQQHYEYPLTFGAGTKLELKR
notes: Mouse monoclonal from hybridoma, murine IgG1 heavy chain and kappa light chain; also called Anti-FVIIIa 4F143
B2: anti-FVIII 4F50 (antibody, mouse IgG1, V domains shown)
VH: B1 VH with A69D, Y106H
VL: B1 VL with T20S
notes: Mouse monoclonal, murine IgG1 heavy chain and kappa light chain; also called Anti-FVIIIa 4F50

Experiments:
[1] = target: T1, B-domain deleted factor VIII (FVIII); test: cell-based or functional assay
[2] = target: T1, B-domain deleted factor VIII (FVIII); test: SPR (Biacore 3000), antibody captured by rabbit anti-mouse IgG, FVIII as analyte; Kd = koff/kon
Procedure: (§1) The kinetics of FVIII binding to antibody was determined by surface plasmon resonance using a Biacore 3000 instrument. Each antibody was captured to a level of 70-110 RU in flow cell 2 of a CM5 chip coated with rabbit anti-mouse IgG antibody (GE Healthcare, Uppsala, Sweden) as described by the manufacturer. Kinetic analysis was performed at 25° C. at a flow rate of 30 μl/min in running buffer using flow cell 1 as reference. Serial two-fold dilutions of FVIII from 0 to 40 nM were analyzed. Following 3-min equilibration of the flow cells in running buffer, 150 μl FVIII were injected. The dissociation phase lasted 9 min and regeneration was performed with a 3-min pulse of 10 mM glycine, pH 1.7. The obtained reference-subtracted sensorgrams fitted well to a 1:1 Langmuir binding model which allowed for estimation of association (Kₒₙ) and dissociation (koff) rate constants and the equilibrium dissociation constant (Kd=koff/kₒₙ) using BIAevaluation 4.1 software (GE Healthcare, Uppsala, Sweden).
TABLE 2 Surface plasmon resonance analysis of the kinetics of FVIII binding to select antibodies. The listed antibodies were captured by immobilized rabbit anti-mouse IgG antibody and binding to FVIII were tested in concentrations ranging from 0 to 40 nM. […] The dissociation constrant Kd was calculated as koff/kₒₙ. […]

[3] = target: T1, B-domain deleted factor VIII (FVIII); test: SPR (Biacore 3000), antibody captured by rabbit anti-mouse IgG, FVIII 0-40 nM as analyte, 25 C, 1:1 Langmuir fit
Procedure: as §1
TABLE 2 Surface plasmon resonance analysis of the kinetics of FVIII binding to select antibodies. The listed antibodies were captured by immobilized rabbit anti-mouse IgG antibody and binding to FVIII were tested in concentrations ranging from 0 to 40 nM. Binding curves fitted well to a 1:1 Langmuir binding isotherm which provided estimates of association (kₒₙ) and dissociation (koff) rate constants. The dissociation constrant Kd was calculated as koff/kₒₙ. Standard errors obtained from the fits are shown.

Binder	Maximal level of thrombin generation, fold-increase compared to FVIII [1] [fold]	Rate of thrombin generation, fold-increase compared to FVIII [1] [fold]	Kd [2] [nM]	koff [3] [s⁻¹]	kon [3] [M⁻¹ s⁻¹]
B1	1.7	1.8	3.5	0.000849	244000
B2			5.6	0.00106	190000
